This note sets out measurements from patent US6383753 (REGENTS OF THE UNIVERSITY OF MICHIGAN, dated 2002).

Test [1] addresses T1, yeast ENIP1 protein fragment (composed of amino acids 170-469) (S. cerevisiae, UniProt Q99207 170-469).
T1 construct: Truncation construct used in the yeast two-hybrid system
T1 sequence: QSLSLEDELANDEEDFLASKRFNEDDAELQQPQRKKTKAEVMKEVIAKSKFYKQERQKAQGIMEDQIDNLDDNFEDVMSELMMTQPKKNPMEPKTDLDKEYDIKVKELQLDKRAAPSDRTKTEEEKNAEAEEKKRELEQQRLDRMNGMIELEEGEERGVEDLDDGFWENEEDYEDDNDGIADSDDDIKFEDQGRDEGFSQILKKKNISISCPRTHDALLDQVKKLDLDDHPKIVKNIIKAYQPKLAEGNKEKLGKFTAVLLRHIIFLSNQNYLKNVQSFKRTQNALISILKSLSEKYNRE
Kind of test: yeast two-hybrid.

For test [2], the target named is T2, yeast Emg1-Nuclear Interacting Protein 1 (ENIP1), S. cerevisiae gene locus YDL148c (S. cerevisiae, UniProt Q99207 1-810, limits assumed).
T2 construct: 810 amino acids; also called yeast ENIP1; yENIP
T2 sequence: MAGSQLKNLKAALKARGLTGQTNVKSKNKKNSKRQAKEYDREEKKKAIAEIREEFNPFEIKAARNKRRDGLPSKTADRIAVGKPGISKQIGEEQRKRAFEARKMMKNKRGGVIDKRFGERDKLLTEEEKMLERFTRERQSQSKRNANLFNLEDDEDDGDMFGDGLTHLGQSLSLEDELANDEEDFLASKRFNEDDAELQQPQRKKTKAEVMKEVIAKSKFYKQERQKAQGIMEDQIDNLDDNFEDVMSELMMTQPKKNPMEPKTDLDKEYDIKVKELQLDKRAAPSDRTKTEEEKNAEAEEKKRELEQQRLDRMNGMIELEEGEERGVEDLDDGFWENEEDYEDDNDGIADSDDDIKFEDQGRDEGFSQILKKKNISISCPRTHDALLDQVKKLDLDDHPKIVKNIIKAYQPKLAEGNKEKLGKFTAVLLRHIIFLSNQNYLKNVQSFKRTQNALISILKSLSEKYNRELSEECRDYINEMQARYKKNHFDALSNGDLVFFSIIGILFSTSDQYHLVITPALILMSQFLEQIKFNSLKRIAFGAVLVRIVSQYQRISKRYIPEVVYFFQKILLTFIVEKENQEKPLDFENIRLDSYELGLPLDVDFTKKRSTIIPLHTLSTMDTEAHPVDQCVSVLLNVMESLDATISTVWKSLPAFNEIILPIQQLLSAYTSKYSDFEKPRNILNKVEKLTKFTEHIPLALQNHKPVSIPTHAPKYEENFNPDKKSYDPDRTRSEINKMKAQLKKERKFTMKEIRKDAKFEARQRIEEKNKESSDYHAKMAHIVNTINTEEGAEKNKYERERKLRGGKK
Kind of test: yeast two-hybrid, cell growth assay on selective (no histidine) medium.

B1: mouse Emg1 protein (other)
chain: MSAASGGFQPRERRFSVQEQDWETTPPKKLRLGAGSKCGGRRLIVVLEGASLETVKVGKTYELLNCDRHKSMLLKNGRDPGEVRPDITHQSLLMLMDSPLNRAGLLQVYIHTQKNVLIEVNPQTRIPRTFDRFCGLMVQLLHKLSVRAADGPQKLLKVIKNPVSDHFPVGCMKIGTSFSVEDISDIRELVPSSDPVVFVVGAFAHGKVSVEYTEKMVSISNYPLSAALTCAKVTTAFEEVWGVI
notes: Used as a two-hybrid fusion; also called mEmg1; murine Emg1
For B1, the binding result in test [1] and in test [2] was “binds” in each case.
